Measured values published in patent US20260209362A1 (VIB VZW, published 2026).

T1: biotinylated recombinant mouse IL-12Rβ2 (mouse, UniProt P97378 24-637, random biotinylated)
T1 construct: Recombinant protein produced in-house, biotinylated; also called mIL-12RB2; mouse IL-12RB2
T1 sequence: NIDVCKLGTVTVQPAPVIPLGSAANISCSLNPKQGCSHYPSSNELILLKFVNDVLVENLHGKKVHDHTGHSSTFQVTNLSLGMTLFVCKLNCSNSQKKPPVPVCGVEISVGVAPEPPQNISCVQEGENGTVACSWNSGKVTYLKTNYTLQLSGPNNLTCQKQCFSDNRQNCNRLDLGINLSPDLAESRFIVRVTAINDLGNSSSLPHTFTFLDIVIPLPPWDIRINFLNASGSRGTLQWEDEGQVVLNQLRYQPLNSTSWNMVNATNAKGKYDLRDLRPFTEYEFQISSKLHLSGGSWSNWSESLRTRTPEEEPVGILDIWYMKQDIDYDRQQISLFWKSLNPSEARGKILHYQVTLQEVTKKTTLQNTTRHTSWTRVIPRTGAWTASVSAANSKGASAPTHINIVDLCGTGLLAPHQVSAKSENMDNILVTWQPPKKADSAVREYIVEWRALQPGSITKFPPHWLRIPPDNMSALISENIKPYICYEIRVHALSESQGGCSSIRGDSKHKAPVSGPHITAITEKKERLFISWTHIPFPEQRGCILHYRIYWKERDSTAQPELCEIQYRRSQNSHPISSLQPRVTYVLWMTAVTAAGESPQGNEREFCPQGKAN

T2: biotinylated recombinant human IL-12Rβ2 (human, UniProt Q99665 24-622, random biotinylated)
T2 construct: Recombinant protein produced in-house, biotinylated; also called hIL-12RB2; human IL-12RB2
T2 sequence: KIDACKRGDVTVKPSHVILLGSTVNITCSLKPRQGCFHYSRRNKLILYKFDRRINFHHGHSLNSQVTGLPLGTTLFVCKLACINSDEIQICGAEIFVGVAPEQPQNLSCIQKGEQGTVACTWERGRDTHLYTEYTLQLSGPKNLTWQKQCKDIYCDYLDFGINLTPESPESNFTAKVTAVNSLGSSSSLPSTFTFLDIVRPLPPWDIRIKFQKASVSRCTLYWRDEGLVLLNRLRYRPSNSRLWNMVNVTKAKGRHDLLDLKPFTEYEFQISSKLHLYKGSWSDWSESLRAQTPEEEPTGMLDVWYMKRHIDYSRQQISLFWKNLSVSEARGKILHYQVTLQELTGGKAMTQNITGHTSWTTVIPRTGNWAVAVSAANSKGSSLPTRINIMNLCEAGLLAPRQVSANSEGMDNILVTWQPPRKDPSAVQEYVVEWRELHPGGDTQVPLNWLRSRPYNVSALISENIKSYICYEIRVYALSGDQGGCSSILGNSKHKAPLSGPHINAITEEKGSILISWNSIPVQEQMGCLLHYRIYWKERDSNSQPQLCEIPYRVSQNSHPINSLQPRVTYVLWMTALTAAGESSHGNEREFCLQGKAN


Experiments:
[1] = target: T1, biotinylated recombinant mouse IL-12Rβ2; experiment: ELISA, periplasmic extract on biotinylated mIL-12Rβ2, signal over control wells
[2] = target: T1, biotinylated recombinant mouse IL-12Rβ2; experiment: BLI (Octet), periplasmic extract on biotinylated mIL-12Rβ2 on streptavidin tips, 1:1 model
[3] = target: T2, biotinylated recombinant human IL-12Rβ2; experiment: BLI (Octet), periplasmic extract on biotinylated hIL-12Rβ2 on streptavidin tips, 1:1 model
[4] = target: T1, biotinylated recombinant mouse IL-12Rβ2; experiment: BLI (Octet), periplasmic extract on biotinylated mIL-12Rβ2 on streptavidin tips
[5] = target: T2, biotinylated recombinant human IL-12Rβ2; experiment: BLI (Octet), periplasmic extract on biotinylated hIL-12Rβ2 on streptavidin tips
[6] = target: T2, biotinylated recombinant human IL-12Rβ2; experiment: ELISA, periplasmic extract on biotinylated hIL-12Rβ2, signal over control wells

Binder	ELISA binding mIL-12RB2/control [1] [ratio]	koff [2] [s⁻¹]	koff [3] [s⁻¹]	Response [4]	Response [5]	ELISA binding hIL-12RB2/control [6] [ratio]
anti-IL-12Rβ2 VHH clone 21057 (VHH, not shown: small tags and cut ends, tested as periplasmic extract; also called 3CRHM35) VHH: QVQLQESGGGLVQAGGSLRLSCAASGRTFSNYAMAWFRQAPGTEREFVAGLSGSGGDTAFYDNSVMGRFTISRDSAKNTMWLQINNLKPEDTAVYYCAAATHVVVNYGLVRRRGTYDYWGQGTQVTVSS	35.5	0.00535	0.00576	1.04	1.36	4.84
anti-IL-12Rβ2 VHH clone 21064 (VHH, not shown: small tags and cut ends, tested as periplasmic extract; also called 3CRHM200) VHH: QVQLQESGGGLVQPGGSLRLSCAASGRTFSNYAMAWFRQAPGTEREFVAGLSGSGGDTAFYDNSVMGRFTISRDSAKNTMWLQINNLKPEDTAVYYCAAATHVVVSYGLVRRRGTYDYWGQGTQVTVSS	5.37	0.00546	0.00571	1.01	1.38	3.58
anti-IL-12Rβ2 VHH clone 21061 (VHH, not shown: small tags and cut ends, tested as periplasmic extract; also called 3CRHM85) VHH: QVQLQESGGGLVQPGGSLRLSCAASRRTFSKHAMAWFRQAPGKEREFVAVVRWSGIITYYADSVKGRFTISRDDAKNTVYLQMDSLKPEDTAVYYCAAGDYRGNGYYVPGMYDYWGQGTQVTVSS	8	0.00474	0.00343	0.816	1.32	3.52
anti-IL-12Rβ2 VHH clone 21055 (VHH, not shown: small tags and cut ends, tested as periplasmic extract; also called 3CRHM20) VHH: QVQLQESGGGLVQAGGSLRLSCAASGRTFSKSTMGWFRQTPGKEREFVAAITWTDTEVYANSVKDRFTISRDNAKNTFYLQMHSLKLEDTAVYYCAGDRYGSSRDSVFSSPTNYPYWGQGTQVTVSS	20.2	0.0059	0.00486	0.586	1.18	8.23
anti-IL-12Rβ2 VHH clone 21062 (VHH, not shown: small tags and cut ends, tested as periplasmic extract; also called 3CRHM99) VHH: QVQLQESGGGLVQPGGSLRLSCAASGISSSRLHVGWFRQSPGKEREFVAAISLSGGTQAYTDSVKGRFTISGDNVKNTAYLQMNSLRPEDTAVYYCAARERFIWTWSDLTYDYWGQGTQVTVSS	5.24	0.00671	0.00634	0.812	1.45	4.24
anti-IL-12Rβ2 VHH clone 21052 (VHH, not shown: small tags and cut ends, tested as periplasmic extract; also called 3CRHM12) VHH: QVQLQESGGGSVQAGGSLRLSCAVSGRTVSDYAMGWFRQAPGKEREFVAAMSSSETTVYPNSVKGRITISRDNAKNAVYLQMNALKPEDTAVYYCSMGPIVTFQGLARQNEYHYWGQGTQVTVSS	38.3	0.00599	0.00547	0.837	1.32	7.28
